Broadly, the Kd is the equilibrium constant for the complex coming apart. A low value points to a tighter complex.

Like-named read-outs stand apart in the source and are kept apart here. Some results are limits rather than exact numbers.

In assay [1] the target is T1, H1 hemagglutinin (A/Solomon Islands/3/2006) (influenza A virus A/Solomon …). Description: ELISA on coated HA, relative Kd (4-parameter fit).
The target of assay [2] is H3 hemagglutinin of H3N2 strain X-31 (influenza A virus X-31 (H3N2), UniProt P03437 17-566). Kind of assay: cell-based or functional assay.
The target of assay [3] is T1, H1 hemagglutinin (A/Solomon …). Kind of assay: ELISA on coated HA, relative Kd (4-parameter fit). The source holds these as a separate data set. A general note: In an ELISA, binding on a coated surface is turned into a signal by an enzyme label.
In assay [4] the target is T2, H1 hemagglutinin (A/Solomon Islands/20/1999) (influenza A virus A/Solomon …).
T2 construct: ELISA antigen
Kind of assay: ELISA on coated HA.

The target of assay [5] is H1 hemagglutinin (A/California/04/2009) (influenza A virus A/California/04/2009 …). Description: cell-based or functional assay.
The target in assay [6] is H1 hemagglutinin of H1N1 Solomon Islands (isolate not specified). Kind of assay: cell-based or functional assay.
Assay [7] concerns the target H5 hemagglutinin (A/Duck/MN/1525/81) (influenza A virus A/Duck/MN/1525/81 …). Kind of assay: cell-based or functional assay.
For assay [8], the target named is H3 hemagglutinin (A/Shangdong/09/93) (influenza A virus A/Shangdong/09/93 …). Kind of assay: cell-based or functional assay.
Assay [9] concerns the target H3 hemagglutinin (A/Fujian/411/2003) (influenza A virus A/Fujian/411/2003 …). Description: cell-based or functional assay.

B1: Ab A18 (antibody, V domains shown)
VH: EVQLLESGGGLVKPGQSLKLSCAASGFTFTSYGMHWVRQPPGKGLEWVAVISYDGSYKYYADSVQGRFTISRDNSKNTLYLQMNSLRAEDTAVYYCAKDSRLRSLLYFEWLSQGYFNPWGAGTTLTVSS
VL: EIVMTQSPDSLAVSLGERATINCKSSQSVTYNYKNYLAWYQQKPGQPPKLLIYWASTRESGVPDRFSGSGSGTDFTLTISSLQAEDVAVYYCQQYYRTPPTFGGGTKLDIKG
On to B1, for which the Kd in assay [1] was 0.144 nM. Moreover, the “IC50 (RT-PCR, neutralisation)” value in assay [2] is 0.4 µg/mL.

B2: Ab 032 (antibody, V domains shown)
VH: QVQLLETGGGLVKPGQSLKLSCAASGFTFTSYAMHWVRQPPGKGLEWVAVVSYDGNYKYYADSVQGRFTISRDNSKNTLYLQMNSLRAEDTAVYYCAKDSRLRSLLYFEWLSQGYFNPWGQGTTLTVSS
VL: DIQMTQSPSSLSASVGDRVTITCRSSQSITFNYKNYLAWYQQKPGKAPKLLIYWGSYLESGVPSRFSGSGSGTDFTLTISSLQPEDFATYYCQQHYRTPPSFGQGTKVEIK
In assay [3], B2 showed a dissociation constant (Kd) of under 0.025 nM.

B3: Ab 044 (antibody, V domains shown)
VH: QVQLLETGGGLVKPGQSLKLSCAASGFTFTSYAMHWVRQPPGKGLEWVAVVSYDGNYKYYADSVQGRFTISRDNSKNTLYLQMNSLRAEDTAVYYCAKDSRLRSLLYFEWLSQGYFNPWGQGTTLTVSS
VL: DIQMTQSPSSLSASVGDRVTITCRSSQSITFDYKNYLAWYQQKPGKAPKLLIYWGSYLESGVPSRFSGSGSGTDFTLTISSLQPEDFATYYCQQHYRTPPSFGQGTKVEIK
On to B3, for which the Kd in assay [4] is under 0.5 nM. Also, the “EC50, Neutral Red (CPE inhibition)” value came to 5.1 µg/mL in [5]; 1.2 µg/mL in assay [6]; 1.5 µg/mL in assay [7]; 0.6 µg/mL in assay [8]; 0.3 µg/mL in [9].

(Values after patent publication US20220204592A1 (VISTERRA, published 2022).)
